Target: PDZ1/2 domain, P78352
Sequence (P78352 61-249 limits assumed): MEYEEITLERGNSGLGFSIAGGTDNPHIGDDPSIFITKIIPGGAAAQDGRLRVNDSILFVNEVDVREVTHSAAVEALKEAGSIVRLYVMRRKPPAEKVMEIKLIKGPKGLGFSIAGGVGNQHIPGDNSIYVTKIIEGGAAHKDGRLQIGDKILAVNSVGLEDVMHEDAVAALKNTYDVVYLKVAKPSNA

B1: chimeric peptide YE-NA-1 (peptide)
peptide: YGRKKRRQRRRYEKLSSIESDV
modifications: not checked
With B1 the Kd was 54.4 nM.

From patent US20210000909A1
